Consider two molecules from publication doi:10.1101/757856, “Biochemical and structural analysis reveals the Neurofibromin (NF1) protein forms a high-affinity dimer” (bioRxiv, 2019).

For assay [1], the target named is T1, Neurofibromin EF fragment (1821-2818, purified) (human, UniProt P21359-2 1821-2818).
T1 construct: Neurofibromin, human NF1 isoform 2 (NM_000267.3), residues 1821-2818 (domains E and F); expected molar mass 111 kDa; also called EF domain; C-terminal EF domain; source: baculovirus-based insect cell system, purified; not shown: His6-MBP, N-terminal, cleaved
T1 sequence (looked up): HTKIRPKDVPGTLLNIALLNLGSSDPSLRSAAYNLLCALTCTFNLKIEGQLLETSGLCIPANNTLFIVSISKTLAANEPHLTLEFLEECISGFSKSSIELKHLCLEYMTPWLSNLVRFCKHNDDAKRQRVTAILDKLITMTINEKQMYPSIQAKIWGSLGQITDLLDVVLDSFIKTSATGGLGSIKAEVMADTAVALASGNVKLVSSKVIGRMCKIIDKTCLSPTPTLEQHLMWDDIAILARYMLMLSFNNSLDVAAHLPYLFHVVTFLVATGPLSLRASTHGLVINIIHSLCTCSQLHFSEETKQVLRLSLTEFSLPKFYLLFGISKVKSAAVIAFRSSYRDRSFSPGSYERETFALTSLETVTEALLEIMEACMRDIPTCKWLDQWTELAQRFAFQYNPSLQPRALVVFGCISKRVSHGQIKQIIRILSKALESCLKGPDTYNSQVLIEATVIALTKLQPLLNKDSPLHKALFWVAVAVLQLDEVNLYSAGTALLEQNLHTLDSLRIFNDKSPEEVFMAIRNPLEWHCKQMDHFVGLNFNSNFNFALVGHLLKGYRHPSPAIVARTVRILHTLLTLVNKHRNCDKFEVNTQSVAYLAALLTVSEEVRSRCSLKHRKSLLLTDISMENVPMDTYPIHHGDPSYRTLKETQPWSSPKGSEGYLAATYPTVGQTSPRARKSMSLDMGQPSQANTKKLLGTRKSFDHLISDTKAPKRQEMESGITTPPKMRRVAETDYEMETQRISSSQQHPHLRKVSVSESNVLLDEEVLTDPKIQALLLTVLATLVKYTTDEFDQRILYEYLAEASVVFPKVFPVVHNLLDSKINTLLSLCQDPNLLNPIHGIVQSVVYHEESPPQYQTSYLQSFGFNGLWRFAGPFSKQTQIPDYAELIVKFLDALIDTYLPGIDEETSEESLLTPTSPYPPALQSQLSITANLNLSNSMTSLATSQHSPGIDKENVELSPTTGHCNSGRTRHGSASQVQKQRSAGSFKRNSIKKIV
The assay is described as follows: SEC; equimolar mixtures of purified NF1 fragments run on SEC; fractions analysed by SDS-PAGE for co-elution. The following applies: both partners purified. For orientation: Size exclusion chromatography separates by hydrodynamic size, large species first.

Assay [2] deals with T2, Neurofibromin DEF fragment (1541-2818, purified) (human, UniProt P21359-2 1541-2818).
T2 construct: expected molar mass 144 kDa; also called DEF domain; carboxy-terminal DEF; source: baculovirus-based insect cell system, purified; not shown: His6-MBP, N-terminal, cleaved
The assay is described as above. As to conditions: both partners purified.

B1: Neurofibromin C*D domain (1085-1816) (domain or fragment, human, UniProt P21359-2 1085-1816, looked up)
chain: LQPEEGDGVELMEAKSQLFLKYFTLFMNLLNDCSEVEDESAQTGGRKRGMSRRLASLRHCTVLAMSNLLNANVDSGLMHSIGLGYHKDLQTRATFMEVLTKILQQGTEFDTLAETVLADRFERLVELVTMMGDQGELPIAMALANVVPCSQWDELARVLVTLFDSRHLLYQLLWNMFSKEVELADSMQTLFRGNSLASKIMTFCFKVYGATYLQKLLDPLLRIVITSSDWQHVSFEVDPTRLEPSESLEENQRNLLQMTEKFFHAIISSSSEFPPQLRSVCHCLYQVVSQRFPQNSIGAVGSAMFLRFINPAIVSPYEAGILDKKPPPRIERGLKLMSKILQSIANHVLFTKEEHMRPFNDFVKSNFDAARRFFLDIASDCPTSDAVNHSLSFISDGNVLALHRLLWNNQEKIGQYLSSNRDHKAVGRRPFDKMATLLAYLGPPEHKPVADTHWSSLNLTSSKFEEFMTRHQVHEKEEFKALKTLSIFYQAGTSKAGNPIFYYVARRFKTGQINGDLLIYHVLLTLKPYYAKPYEIVVDLTHTGPSNRFKTDFLSKWFVVFPGFAYDNVSAVYIYNCNSWVREYTKYHERLLTGLKGSKRLVFIDCPGKLAEHIEHEQQKLPAATLALEEDLKVFHNALKLAHKDTKVSIKVGSTAVQVTSAERTKVLGQSVFLNDIYYASEIEEICLVDENQFTLTIANQGTPLTFMHQECEAIVQSIIHIRTRWELSQPD
notes: C* constructs have an altered start site within the C domain; source: purified; not shown: His6-MBP, N-terminal, cleaved
As for B1, the binding result in assay [1] is listed as “binds”.

B2: Neurofibromin C* domain (1085-1530) (domain or fragment, human, UniProt P21359-2 1085-1530, looked up)
chain: LQPEEGDGVELMEAKSQLFLKYFTLFMNLLNDCSEVEDESAQTGGRKRGMSRRLASLRHCTVLAMSNLLNANVDSGLMHSIGLGYHKDLQTRATFMEVLTKILQQGTEFDTLAETVLADRFERLVELVTMMGDQGELPIAMALANVVPCSQWDELARVLVTLFDSRHLLYQLLWNMFSKEVELADSMQTLFRGNSLASKIMTFCFKVYGATYLQKLLDPLLRIVITSSDWQHVSFEVDPTRLEPSESLEENQRNLLQMTEKFFHAIISSSSEFPPQLRSVCHCLYQVVSQRFPQNSIGAVGSAMFLRFINPAIVSPYEAGILDKKPPPRIERGLKLMSKILQSIANHVLFTKEEHMRPFNDFVKSNFDAARRFFLDIASDCPTSDAVNHSLSFISDGNVLALHRLLWNNQEKIGQYLSSNRDHKAVGRRPFDKMATLLAYLGPPEH
notes: source: purified; not shown: His6-MBP, N-terminal, cleaved
On to B2, for which the binding result in assay [2] and in assay [1] was “binds” throughout.
